Results from patent US6534281.

Experiments:
human C-peptide (human) [1] = assay: ELISA on immobilized C-peptide; labeled antibody 10 ug/ml, free C-peptide 0 ug/ml (reference)
human C-peptide (human) [2] = assay: ELISA on immobilized C-peptide; labeled antibody 10 ug/ml, free C-peptide 1.0 ug/ml
human C-peptide (human) [3] = assay: ELISA on immobilized C-peptide; labeled antibody 1.0 ug/ml, free C-peptide 0 ug/ml
human C-peptide (human) [4] = assay: ELISA on immobilized C-peptide; labeled antibody 1.0 ug/ml, free C-peptide 10 ug/ml
human C-peptide (human) [5] = assay: ELISA on immobilized C-peptide; labeled antibody 0.1 ug/ml, free C-peptide 0 ug/ml
human proinsulin (human) [6] = target: human proinsulin (human) (UniProt P01308); assay: sandwich immunoassay, one-step, against C-peptide calibration; proinsulin 400 ng/ml; 9101 on particles, labeled antibody 9103
Sequence of UniProt P01308 (P01308 25-110): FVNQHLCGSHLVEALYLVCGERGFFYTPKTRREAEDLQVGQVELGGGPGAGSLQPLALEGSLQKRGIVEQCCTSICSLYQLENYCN

human C-peptide (human) [7] = assay: sandwich immunoassay, one-step; 9101 on particles, labeled antibody 9103
human C-peptide (human) [8] = assay: ELISA on immobilized C-peptide; labeled antibody 0.1 ug/ml, free C-peptide 0.1 ug/ml
human proinsulin (human) [9] = target: human proinsulin (human) (UniProt P01308); assay: sandwich immunoassay, two-step, against C-peptide calibration; proinsulin 50 ng/ml; 9101 on particles, labeled antibody 9103
human C-peptide (human) [10] = assay: ELISA on immobilized C-peptide; labeled antibody 0.0 ug/ml (blank), free C-peptide 10 ug/ml
human C-peptide (human) [11] = assay: ELISA on immobilized C-peptide; labeled antibody 0.1 ug/ml, free C-peptide 0 ug/ml (reference)
human proinsulin (human) [12] = target: human proinsulin (human) (UniProt P01308); assay: sandwich immunoassay, one-step, against C-peptide calibration; proinsulin 200 ng/ml; 9101 on particles, labeled antibody 9103
human C-peptide (human) [13] = assay: sandwich immunoassay, two-step; 9101 on particles, labeled antibody 9103
human proinsulin (human) [14] = target: human proinsulin (human) (UniProt P01308); assay: sandwich immunoassay, one-step, against C-peptide calibration; proinsulin 50 ng/ml; 9101 on particles, labeled antibody 9103
human C-peptide (human) [15] = assay: ELISA on immobilized C-peptide; labeled antibody 0.1 ug/ml, free C-peptide 10 ug/ml
human C-peptide (human) [16] = assay: ELISA on immobilized C-peptide; labeled antibody 1.0 ug/ml, free C-peptide 1.0 ug/ml
human proinsulin (human) [17] = target: human proinsulin (human) (UniProt P01308); assay: sandwich immunoassay, two-step, against C-peptide calibration; proinsulin 200 ng/ml; 9101 on particles, labeled antibody 9103
human proinsulin (human) [18] = target: human proinsulin (human) (UniProt P01308); assay: sandwich immunoassay, two-step, against C-peptide calibration; proinsulin 400 ng/ml; 9101 on particles, labeled antibody 9103
human C-peptide (human) [19] = assay: ELISA on immobilized C-peptide; labeled antibody 0.0 ug/ml (blank), free C-peptide 0.1 ug/ml
human C-peptide (human) [20] = assay: ELISA on immobilized C-peptide; labeled antibody 1.0 ug/ml, free C-peptide 0 ug/ml (reference)
human C-peptide (human) [21] = assay: sandwich immunoassay, two-step; 9101 on particles, labeled antibody CPT-3F-11
human proinsulin (human) [22] = target: human proinsulin (human) (UniProt P01308); assay: sandwich immunoassay, two-step, against C-peptide calibration; proinsulin 200 ng/ml; 9101 on particles, labeled antibody CPT-3-F11
[23] = target: modified C-peptide (human C-peptide having Arg-Arg bound to its N-terminal and Lys-Arg bound to its C-terminal) (human); assay: sandwich immunoassay, two-step, against C-peptide calibration; modified C-peptide 5 ng/ml; 9101 on particles, labeled antibody 9103
Sequence of modified C-peptide (human C-peptide having Arg-Arg bound to its N-terminal and Lys-Arg bound to its C-terminal) (human) (peptide, as listed by the source): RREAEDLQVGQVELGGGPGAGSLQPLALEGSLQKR

human proinsulin (human) [24] = target: human proinsulin (human) (UniProt P01308); assay: sandwich immunoassay, two-step, against C-peptide calibration; proinsulin 400 ng/ml; 9101 on particles, labeled antibody CPT-3-F11
human proinsulin (human) [25] = target: human proinsulin (human) (UniProt P01308); assay: sandwich immunoassay, one-step, against C-peptide calibration; proinsulin 400 ng/ml; 9101 on particles, labeled antibody CPT-3-F11
human C-peptide (human) [26] = assay: ELISA on immobilized C-peptide; labeled antibody 0.1 ug/ml, free C-peptide 1.0 ug/ml
human proinsulin (human) [27] = target: human proinsulin (human) (UniProt P01308); assay: sandwich immunoassay, one-step, against C-peptide calibration; proinsulin 50 ng/ml; 9101 on particles, labeled antibody CPT-3-F11
human C-peptide (human) [28] = assay: ELISA on immobilized C-peptide; labeled antibody 10 ug/ml, free C-peptide 10 ug/ml
human C-peptide (human) [29] = assay: sandwich immunoassay, one-step; 9101 on particles, labeled antibody CPT-3F-11
human proinsulin (human) [30] = target: human proinsulin (human) (UniProt P01308); assay: sandwich immunoassay, two-step, against C-peptide calibration; proinsulin 50 ng/ml; 9101 on particles, labeled antibody CPT-3-F11
human C-peptide (human) [31] = assay: ELISA on immobilized C-peptide; labeled antibody 10 ug/ml, free C-peptide 0.1 ug/ml
human C-peptide (human) [32] = assay: ELISA on immobilized C-peptide; labeled antibody 0.0 ug/ml (blank), free C-peptide 1.0 ug/ml
human C-peptide (human) [33] = assay: ELISA on immobilized C-peptide; labeled antibody 0.0 ug/ml (blank), free C-peptide 0 ug/ml
human C-peptide (human) [34] = assay: ELISA on immobilized C-peptide; labeled antibody 1.0 ug/ml, free C-peptide 0.1 ug/ml
[35] = target: modified C-peptide (human C-peptide having Arg-Arg bound to its N-terminal and Lys-Arg bound to its C-terminal) (human); assay: sandwich immunoassay, one-step, against C-peptide calibration; modified C-peptide 5 ng/ml; 9101 on particles, labeled antibody CPT-3F-11
[36] = target: modified C-peptide (human C-peptide having Arg-Arg bound to its N-terminal and Lys-Arg bound to its C-terminal) (human); assay: sandwich immunoassay, two-step, against C-peptide calibration; modified C-peptide 5 ng/ml; 9101 on particles, labeled antibody CPT-3F-11
human C-peptide (human) [37] = assay: ELISA on immobilized C-peptide; labeled antibody 10 ug/ml, free C-peptide 0 ug/ml
[38] = target: modified C-peptide (human C-peptide having Arg-Arg bound to its N-terminal and Lys-Arg bound to its C-terminal) (human); assay: sandwich immunoassay, one-step, against C-peptide calibration; modified C-peptide 5 ng/ml; 9101 on particles, labeled antibody 9103
human proinsulin (human) [39] = target: human proinsulin (human) (UniProt P01308); assay: sandwich immunoassay, one-step, against C-peptide calibration; proinsulin 200 ng/ml; 9101 on particles, labeled antibody CPT-3-F11

Sequence of human C-peptide (human) (peptide, as listed by the source): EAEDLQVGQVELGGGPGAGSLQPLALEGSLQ

anti-human C-peptide monoclonal antibody 9101 (Medix Biochemica)
Binding Ratio (human C-peptide (human) [1]): 100%
Absorbance (absorbance at 405 nm) (human C-peptide (human) [2]): 0.051
Binding Ratio (human C-peptide (human) [2]): 2.6%
Absorbance (absorbance at 405 nm) (human C-peptide (human) [3]): 1.69
Absorbance (absorbance at 405 nm) (human C-peptide (human) [4]): 0.001
Binding Ratio (human C-peptide (human) [4]): 0%
Absorbance (absorbance at 405 nm) (human C-peptide (human) [5]): 1.26
Cross-reactivity (%) to Human Proinsulin (human proinsulin (human) [6]): > 15%
2S/N value (human C-peptide (human) [7]): 0.222 ng/mL
Absorbance (absorbance at 405 nm) (human C-peptide (human) [8]): 0.141
Binding Ratio (human C-peptide (human) [8]): 11.1%
Cross-reactivity (%) to Human Proinsulin (human proinsulin (human) [9]): 12.8%
Absorbance (absorbance at 405 nm) (human C-peptide (human) [10]): 0
Binding Ratio (human C-peptide (human) [10]): 0%
Binding Ratio (human C-peptide (human) [11]): 100%
Cross-reactivity (%) to Human Proinsulin (human proinsulin (human) [12]): 18.1%
2S/N value (human C-peptide (human) [13]): 0.11 ng/mL
Cross-reactivity (%) to Human Proinsulin (human proinsulin (human) [14]): 19.7%
Absorbance (absorbance at 405 nm) (human C-peptide (human) [15]): 0
Binding Ratio (human C-peptide (human) [15]): 0%
Absorbance (absorbance at 405 nm) (human C-peptide (human) [16]): 0.042
Binding Ratio (human C-peptide (human) [16]): 2.5%
Cross-reactivity (%) to Human Proinsulin (human proinsulin (human) [17]): 9.8%
Cross-reactivity (%) to Human Proinsulin (human proinsulin (human) [18]): 8.4%
Absorbance (absorbance at 405 nm) (human C-peptide (human) [19]): 0
Binding Ratio (human C-peptide (human) [19]): 0%
Binding Ratio (human C-peptide (human) [20]): 100%
2S/N value (human C-peptide (human) [21]): 0.009 ng/mL
Cross-reactivity (%) to Human Proinsulin (human proinsulin (human) [22]): 11.8%
Cross-reactivity (%) to Modified C-peptide [23]: < 0.7%
Cross-reactivity (%) to Human Proinsulin (human proinsulin (human) [24]): 12.1%
Cross-reactivity (%) to Human Proinsulin (human proinsulin (human) [25]): 11.7%
Absorbance (absorbance at 405 nm) (human C-peptide (human) [26]): 0.013
Binding Ratio (human C-peptide (human) [26]): 1%
Cross-reactivity (%) to Human Proinsulin (human proinsulin (human) [27]): 19.6%
Absorbance (absorbance at 405 nm) (human C-peptide (human) [28]): 0.001
Binding Ratio (human C-peptide (human) [28]): 0.1%
2S/N value (human C-peptide (human) [29]): 0.008 ng/mL
Cross-reactivity (%) to Human Proinsulin (human proinsulin (human) [30]): 10.7%
Absorbance (absorbance at 405 nm) (human C-peptide (human) [31]): 0.331
Binding Ratio (human C-peptide (human) [31]): 17.1%
Absorbance (absorbance at 405 nm) (human C-peptide (human) [32]): 0
Binding Ratio (human C-peptide (human) [32]): 0%
Absorbance (absorbance at 405 nm) (human C-peptide (human) [33]): 0
Binding Ratio (human C-peptide (human) [33]): 0%
Absorbance (absorbance at 405 nm) (human C-peptide (human) [34]): 0.298
Binding Ratio (human C-peptide (human) [34]): 17.6%
Cross-reactivity (%) to Modified C-peptide [35]: 9.3%
Cross-reactivity (%) to Modified C-peptide [36]: 1.7%
Absorbance (absorbance at 405 nm) (human C-peptide (human) [37]): 1.98
Cross-reactivity (%) to Modified C-peptide [38]: < 0.5%
Cross-reactivity (%) to Human Proinsulin (human proinsulin (human) [39]): 17.8%
